From article PMC1977788 (1992)

Legend:
[1] = biological target: T1, EGFR (Homo sapiens, UniProt P00533); experiment: 125I-EGF whole-cell saturation binding, ZR-PR-LT cells, Woolf analysis
[2] = biological target: T1, EGFR; experiment: 125I-EGF whole-cell saturation binding, ZR-PR-LT cells + acid wash, Woolf analysis
[3] = biological target: T1, EGFR; experiment: 125I-EGF whole-cell saturation binding, ZR-75-1 cells, Woolf analysis
[4] = biological target: T1, EGFR; experiment: 125I-EGF whole-cell saturation binding, ZR-75-9a1 FCSdcc 1 week, Woolf analysis
[5] = biological target: T1, EGFR; experiment: 125I-EGF whole-cell saturation binding, ZR-PR-LT cells + suramin pretreatment, Woolf analysis
[6] = biological target: T1, EGFR; experiment: 125I-EGF whole-cell saturation binding, ZR-75-9a1 FCSdcc 4 weeks, Woolf analysis
[7] = biological target: T1, EGFR; experiment: 125I-EGF whole-cell saturation binding, ZR-75-9a1 8 uM cells, Woolf analysis
[8] = biological target: T1, EGFR; experiment: 125I-EGF whole-cell saturation binding, ZR-75-9a1 FCSdcc 2 years, Woolf analysis
[9] = biological target: T1, EGFR; experiment: 125I-EGF whole-cell saturation binding, ZR-75-9a1 FCSdcc 2 weeks, Woolf analysis

B1: EGF (protein)
chain: NSYPGCPSSYDGYCLNGGVCMHIESLDSYTCNCVIGYSGDRCQTRDLRWWELR
A Kd [1] of 0.26 nM, a Kd [2] of 0.21 nM and a Kd [3] of 0.23 nM were found for B1 in this work. It also gave a Kd [4] of 0.37 nM, a Kd [5] of 0.31 nM and a Kd [6] of 0.14 nM. For the same binder, the Kd [7] was 0.19 nM, the Kd [8] was 0.18 nM and the Kd [9] was 0.28 nM.
